Test results reported in patent US8530619B2, “Identification of the hepcidin binding site on ferroportin” (University of Utah Research Foundation, priority 2007, dated 2013).
Entries after “also recorded” stand apart in the source; their conditions may differ. No end group written: not given here.

What was measured:
serum hepcidin = assay: Serum hepcidin levels after LPS injection, I-HBD assay; assay type: in vivo; conditions: LPS injected mice
Procedure: FIGS. 5A-E illustrate the hepcidin concentrations in mice and human sera. In FIG. 5A, different concentrations of serum were incubated with a known amount of ^125I-hepcidin and I-HBD for 18 hours at 37° C. The beads were washed and radioactivity bound to the beads was determined. A standard curve was determined by incubating known amounts of hepcidin with ^125I-hepcidin and HBD-beads. In FIG. 5B, sera was obtained from wild type mice (C57/Bl6) or from mice that were homozygous for a targeted gene deletion in HFE or homozygous or heterozygous for a targeted gene deletion in the HAMP gene. […] The beads were washed and the amount of radioactivity was determined. Serum hepcidin levels were calculated relative to a standard curve. […] Sera was obtained from the mice 10 hours later and the hepcidin concentration was determined as described in FIG. 5A. In FIG. 5D hepcidin levels were measured in different strains of mice. […] Hepcidin levels were determined as in FIG. 5A. The serum iron (SI), […] (TIBC) and transferrin saturation was calculated as described herein. Each sample was analyzed in triplicate and the error bars represent the standard deviation
HBD peptides were immobilized by covalently attaching them to agarose beads. […] The fluid was removed and the radioactivity bound to beads was determined by gamma counting (Perkin/Elmer). […]

I-HBD = target: T1, I-HBD (Homo sapiens, UniProt Q9NP59); assay: Effect of NEM on 125I-hepcidin binding to I-HBD
T1 construct: made in house; host or cells: chemical synthesis
T1 sequence (Q9NP59 with tags, fused parts or gaps limits assumed): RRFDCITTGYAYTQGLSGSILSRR
Procedure: FIGS. 3A and 3B illustrate that the dissociation of the hepcidin/HBD complex is accelerated by low temperature. In FIG. 3A ^125I-hepcidin was added to I-HBD and a complex was allowed to form at 37° C. The I-HBD/^125I-hepcidin complex was washed and then incubated with an excess of non-radioactive hepcidin. The samples were then incubated at 37° C. (closed circle) or 4° C. (open circle) for the specified times and the amount of radioactivity remaining bound to the I-HBD was determined. The data are expressed as radioactivity at each time point relative to the amount bound at time zero. In FIG. 3B the ^125I-hepcidin/1-HBD complex was allowed to form at 37° C., the complex was then washed and incubated with the indicated concentration of NEM and the amount of bound radioactivity was determined after a four-hour incubation (closed circles). I-HBD alone was also incubated with the specified concentrations of NEM for 2 hours. The I-HBD beads were washed and then ^125I-hepcidin was added at 37° C. and the amount of bound radioactivity was determined after a four-hour incubation (open circles).

hepcidin [1] = target: T2, hepcidin (Homo sapiens, UniProt P81172, M80Y); assay: Inhibition of hepcidin-mediated Fpn-GFP internalization in HEK293TFpn-GFP cells by peptides preincubated with hepcidin; assay type: cell-based; conditions: preincubation at 37° C.
T2 construct: generates the mature bioactive 25-amino acid form found in plasma and urine; made in house; host or cells: chemical synthesis
T2 sequence (P81172 60-84 M80Y): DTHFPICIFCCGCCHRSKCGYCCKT
Procedure: (§1) FIGS. 1A-D illustrate inhibition of hepcidin-mediated Fpn internalization by HBD. […] The HBD peptides and hepcidin were mixed at an equal molar ratio for two hours at 37° C. and then added to cells for one or 24 hours. Fpn internalization at one hour was analyzed by epifluorescence (upper panel) and the percentage of cells showing internalized Fpn-GFP at one and 24 hours was quantified (lower panel). The data represent the standard error of the mean from analyzing over 10 fields (20-30 cells) per sample. FIG. 1B illustrates HBD inhibition of Fpn-GFP internalization. Fpn-GFP expressing cells were incubated with hepcidin, hepcidin preincubated with HBD at 37° C. or hepcidin preincubated with HBD at 4° C. Fpn-GFP internalization at one (black bars) and 24 (grey bars) hours was quantified. The percentage of cells with internalized Fpn is shown. FIG. 1C illustrates that ^125I-hepcidin binds to HBD similarly to unlabeled hepcidin. ^125I-hepcidin was preincubated with HBD at 37° C. or 4° C. for one hour and then the mixture added to cells for one hour (black bars) or twenty-four hours (grey bars). The data are expressed as in FIG. 1B. FIG. 1D illustrates the fact that binding of hepcidin to HBD is reversible by low temperature. In the left panel the samples were treated as in FIG. 1C. In the right panel, the sample was incubated at 37° C. and was placed at 4° C. for four hours. The mixture was then incubated with cells at 37° C. and the internalization of Fpn-GFP was determined after one (black bars) or twenty four hours (grey bars).
(§2) Incubation of HEK293TFpn-GFP cells with hepcidin results in the internalization of cell surface Fpn-GFP (2) and FIG. 1A. […] Previously it was determined that hepcidin binding to Fpn was temperature dependent (2).
(§3) HEK293TFpn-GFP, a stable cell line in which Fpn-Green fluorescent protein (GFP) expression is regulated by the ecdysone promoter has been described previously (2).
(§4) Peptides were synthesized at the DNA/Peptide Core Facility, University of Utah, Salt Lake City, Utah. The peptides were synthesized with two arginines added at the amino and carboxyl terminals. […] Microscope analysis was carried out using an Olympus BX51 microscope (Olympus, Tokyo, Japan). Images were acquired using Picture Frame 2.5 software (Olympus America, East Muskogee, Okla.). All experiments were repeated a minimum of 5 times.
(§5) To characterize the interaction of the HBD with hepcidin, hepcidin was labeled at an iodinateable tyrosine to produce ^125I-hepcidin. Previously, it was shown that ^125I-hepcidin bound to Fpn indistinguishably from hepcidin that lacked the iodinateable tyrosine (2). HBD was then conjugated to agarose beads to produce immobilized HBD (I-HBD), which was then preincubated with ^125I-hepcidin at 37° C. prior to addition to Fpn-GFP expressing cells.

hepcidin [2] = target: T3, hepcidin (Homo sapiens, UniProt P81172); assay: as above; assay type: cell-based; conditions: peptide preincubated with hepcidin at equal molar amounts, 37° C.; HEK293TFpn-GFP cells
T3 construct: generates the mature bioactive 25-amino acid form found in plasma and urine; made in house; host or cells: chemical synthesis
T3 sequence (P81172 60-84): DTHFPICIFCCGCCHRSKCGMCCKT
Procedure: as §1, §2, §3, §4, §5

125I-hepcidin = target: T4, 125I-hepcidin (Homo sapiens, UniProt P81172, M80Y); assay: 125I-hepcidin binding to bead-immobilized peptides; conditions: 37° C.; listed as HBD peptide containing the human Fpn mutation C326Y
T4 construct: hepcidin 25 synthesized with a tyrosine substitution at position M21 (Y-Hep 25); made in house; host or cells: chemical synthesis
T4 sequence (P81172 60-84 M80Y): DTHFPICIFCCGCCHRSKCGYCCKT
Procedure: FIGS. 2A-C illustrates that the binding of ^125I-hepcidin to HBD is specific and temperature dependent. In FIG. 2A peptides (HBD, scrambled-HBD or mutant (C326Y HBD) were conjugated to beads and ^125I-hepcidin was added to the bead-immobilized peptides (I-HBD) for 18 hours at 37° C. (black bars) or 4° C. (grey bars). The beads were washed and the amount of ^125I-hepcidin bound to the I-HBD was determined. In FIG. 2B a sub saturating concentration of ^125I-hepcidin (0.6 μg/ml) was incubated with I-HBD for 18 hours at 37° C. in the presence or absence of known concentrations of either hepcidin 25 (Hep 25-open circles) or hepcidin 25 synthesized with a tyrosine substitution at position M21 (Y-Hep 25) and the amount of radioactivity bound to the I-HBD determined. […]
FIGS. 3A and 3B illustrate that the dissociation of the hepcidin/HBD complex is accelerated by low temperature. […] (open circle) for the specified times and the amount of radioactivity remaining bound to the I-HBD was determined. The data are expressed as radioactivity at each time point relative to the amount bound at time zero. In FIG. 3B the ^125I-hepcidin/1-HBD complex was allowed to form at 37° C., the complex was then washed and incubated with the indicated concentration of NEM and the amount of bound radioactivity was determined after a four-hour incubation (closed circles). […]

[3] = target: T5, I-HBD (hepcidin binding domain of ferroportin) (Homo sapiens, UniProt Q9NP59); assay: Competition with 125I-hepcidin for binding to I-HBD beads
T5 construct: made in house; host or cells: chemical synthesis
Procedure: FIGS. 2A-C illustrates that the binding of ^125I-hepcidin to HBD is specific and temperature dependent. In FIG. 2A peptides (HBD, scrambled-HBD or mutant (C326Y HBD) were conjugated to beads and ^125I-hepcidin was added to the bead-immobilized peptides (I-HBD) for 18 hours at 37° C. (black bars) or 4° C. (grey bars). The beads were washed and the amount of ^125I-hepcidin bound to the I-HBD was determined. In FIG. 2B a sub saturating concentration of ^125I-hepcidin (0.6 μg/ml) was incubated with I-HBD for 18 hours at 37° C. in the presence or absence of known concentrations of either hepcidin 25 (Hep 25-open circles) or hepcidin 25 synthesized with a tyrosine substitution at position M21 (Y-Hep 25) and the amount of radioactivity bound to the I-HBD determined. In FIG. 2C sub saturating levels of ^125I-hepcidin were incubated with I-HBD at different temperatures.
The binding of ^125I-hepcidin could be reduced by addition of native non-radioactive hepcidin with an apparent K of approximately 200 nM (FIG. 2B). There was no binding of ^125I-hepcidin to I-HBD at 4° C. and ^125I-hepcidin bound to I-HBD at 37° C. was released when subsequently placed at 4° C. (data not shown).
HBD peptides were immobilized by covalently attaching them to agarose beads. […] The fluid was removed and the radioactivity bound to beads was determined by gamma counting (Perkin/Elmer).

Fpn = target: T6, Fpn (Homo sapiens, UniProt Q9NP59); conditions: reference (7); cited from earlier work
T6 sequence (Q9NP59 1-571): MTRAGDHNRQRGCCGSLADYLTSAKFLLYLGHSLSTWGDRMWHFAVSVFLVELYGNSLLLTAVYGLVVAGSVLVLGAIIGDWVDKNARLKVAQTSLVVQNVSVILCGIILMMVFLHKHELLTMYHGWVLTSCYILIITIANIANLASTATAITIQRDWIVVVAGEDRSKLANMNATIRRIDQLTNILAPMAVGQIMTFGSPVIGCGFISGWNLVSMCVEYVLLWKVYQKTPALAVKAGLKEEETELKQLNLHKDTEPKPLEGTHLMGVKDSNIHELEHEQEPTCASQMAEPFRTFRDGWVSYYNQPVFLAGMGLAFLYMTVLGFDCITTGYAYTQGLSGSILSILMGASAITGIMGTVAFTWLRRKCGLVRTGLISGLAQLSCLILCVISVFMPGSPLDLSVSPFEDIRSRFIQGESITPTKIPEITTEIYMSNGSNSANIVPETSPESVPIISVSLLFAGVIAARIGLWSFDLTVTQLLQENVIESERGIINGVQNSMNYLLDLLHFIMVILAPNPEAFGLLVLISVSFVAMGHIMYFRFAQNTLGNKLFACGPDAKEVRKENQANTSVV

lipopolysaccharide [LPS]
hepcidin levels in sera (serum hepcidin): two-fold increase

CCN1C(=O)C=CC1=O [NEM, N-ethylmaleimide]
125I-hepcidin binding activity of I-HBD (I-HBD; I-HBD treated with NEM before 125I-hepcidin): loss of ^125I-hepcidin binding activity | 125I-hepcidin/I-HBD complex (I-HBD; NEM added after complex formed at 37° C.): the complex was not affected

HBD Mutant: Fpn peptide containing the C326Y mutation, RR-FDYITTGYAYTQGLSGSILS-RR (SEQ ID NO: 4) (RRFDYITTGYAYTQGLSGSILSRR; HBD Mutant)
Fpn-GFP internalization activity of 125I-hepcidin after preincubation with peptide (hepcidin [1]): did not affect | hepcidin-mediated internalization of Fpn-GFP (hepcidin [2]): did not prevent hepcidin mediated Fpn-GFP internalization | 125I-hepcidin binding to the peptide (125I-hepcidin): did not bind ^125I-hepcidin

Hep20: hepcidin derivative with the five amino terminal amino acids deleted (ICIFCCGCCHRSKCGMCCKT; not fully specified (N-terminus, C-terminus); ends and bridges not checked)
binding to HBD / I-HBD [3]: nor do they bind to HBD; also recorded: does not bind to I-HBD | binding to Fpn (Fpn): do not bind to Fpn

HBD Scramble: same amino acid composition as HBD in randomized sequence, RR-ILSLFDAYCTGTQITGSGSY-RR (SEQ ID NO: 3) (RRILSLFDAYCTGTQITGSGSYRR; HBD Scramble)
Fpn-GFP internalization activity of 125I-hepcidin after preincubation with peptide (hepcidin [1]): did not affect | hepcidin-mediated internalization of Fpn-GFP (hepcidin [2]): did not prevent Fpn-internalization
